Experimental data: US20200317792A1 (INSMED, published 2020)
Where a chain is given by its changes, count along the chain named. Values belong to the binder of their own block, whether it stands above or below them.

Molecular target: T1, recombinant, soluble his tagged human EGFR (Sino Biologicals) (human, UniProt P00533 25-645)
T1 construct: extracellular domain; also called human epidermal growth factor receptor; not shown: his tag
Assay: BLI (ForteBio Octet Red), IgG on protein A tips, 100 nM soluble EGFR;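 note: antibody binding to EGFR read out as on and off rates plus equilibrium affinity, calculated with the Octet instrument software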

- binding result: binds
B1: CoDAH design C5 VH/C1 Vκ (antibody, V domains shown)
VH: QVQLQQSGPGLVKPSETLSITCTVSGFSLTNYGVHWVRQSPGKGLEWLGVIWSGGNTDYNTPFTSRLTINKDNSKSQVFFKMNSLQSNDTAVYYCARALTYYDYEFAYWGQGTLVTVSA
VL: DIVLTQSPDFQSVTPKEKVTITCRASQSIGTNIHWYQQKPDQSPKLLIKYASESISGVPSRFSGSGSGTDFTLTINSVESEDIADYYCQQNNNWPTTFGAGTKLELKR
notes: Cross pair; Measured as full length IgG

- binding result: binds
B2: CoDAH design C5 VH/C2 Vκ (antibody, V domains shown)
VH: B1 VH
VL: B1 VL with D9V, Q11L, K16G
notes: as for B1

- binding result: binds
B3: CoDAH design C5 VH/C5 Vκ (antibody, V domains shown)
VH: B1 VH
VL: EIVLTQSPVILSVSPGERVTFSCRASQSIGTNIHWYQQKTDQSPRLLIKYASESISGIPSRFSGSGSGTDFTLTINSVESEDIADYYCQQNNNWPTTFGQGTKLELKR
notes: Pareto optimal design; Measured as full length IgG

- binding result: binds
B4: CoDAH design C5 VH/C3 Vκ (antibody, V domains shown)
VH: B1 VH
VL: B3 VL with E1D, V3L, T40P, R45K, I58V, Q100A
notes: as for B1
